Laboratory results as given in patent US20260022175A1 (Chugai, published 2026).
Blank lines part the entries; values can stand above or below the binder they belong to.

Assays:
[1] = molecular target: T1, human FcγRIa extracellular domain with C-terminal His-tag (human, UniProt P12314 16-292); test: SPR Biacore T200, Ab captured via Fab-lambda, pH 7.4, 25C;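 note: antibodies captured on a streptavidin chip carrying biotinylated anti-Fab-lambda, with each FcγR injected as analyte in phosphate buffer. KD fitted by 1:1 Langmuir or steady-state model depending on receptor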
T1 construct: extracellular domain; also called hFcγR Ia; hFcγRIa
T1 sequence (P12314 16-292): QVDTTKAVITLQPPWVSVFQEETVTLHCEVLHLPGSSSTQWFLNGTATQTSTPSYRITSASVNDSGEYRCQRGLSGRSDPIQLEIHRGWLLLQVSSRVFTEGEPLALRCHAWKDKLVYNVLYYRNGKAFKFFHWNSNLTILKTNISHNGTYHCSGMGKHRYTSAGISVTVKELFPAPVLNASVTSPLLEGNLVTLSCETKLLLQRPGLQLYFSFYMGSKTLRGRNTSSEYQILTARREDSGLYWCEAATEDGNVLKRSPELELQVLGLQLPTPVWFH
Experimental: (§1) The interaction between the generated antibodies and human FcγRs was analyzed by the following method using Biacore T200. 50 mM Na-Phosphate, 150 mM NaCl, 0.05% Tween20 (pH 7.4) was used as the running buffer, and the assay was performed at 25° C. For the sensor chips, Series S SA (GE Healthcare) chips onto which CaptureSelect Human Fab-lambda Kinetics Biotin Conjugate (Thermo Fisher Scientific) was immobilized were used. The antibodies of interest were captured onto these chips and each FcγR diluted in the running buffer was allowed to interact with them. Chips were regenerated with 10 mM Glycine-HCl (pH 1.5) and 25 mM NaOH, and assay was performed by repeatedly capturing antibodies. The dissociation constants KD (mol/L) for FcγRs of each antibody were calculated using Biacore T200 Evaluation Software 2.0, using the 1:1 Langmuir binding model for FcγRIa and FcγRIIIa and the steady state affinity model for FcγRIIa. For FcγRIIb, the binding amount of FcγRIIb per unit amount of antibody was calculated by correcting the binding amount of FcγRIIb obtained from the sensorgram obtained by the measurement with the amount of antibody captured onto the chip surface.

[2] = molecular target: T2, human FcγRIIa R allotype extracellular domain with C-terminal His-tag (human, UniProt P12318 34-217); test: as above
T2 construct: extracellular domain; also called hFcγR IIa R
T2 sequence (looked up): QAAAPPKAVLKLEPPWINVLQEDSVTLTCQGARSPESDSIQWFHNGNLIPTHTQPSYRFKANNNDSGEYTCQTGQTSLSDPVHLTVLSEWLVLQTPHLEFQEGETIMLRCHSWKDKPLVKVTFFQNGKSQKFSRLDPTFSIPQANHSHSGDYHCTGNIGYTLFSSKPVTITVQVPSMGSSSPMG
Experimental: as §1

[3] = molecular target: T3, human FcγRIIa H allotype extracellular domain with C-terminal His-tag (human, UniProt P12318 34-217); test: as above
T3 construct: extracellular domain; also called hFcγR IIa H
T3 sequence (looked up): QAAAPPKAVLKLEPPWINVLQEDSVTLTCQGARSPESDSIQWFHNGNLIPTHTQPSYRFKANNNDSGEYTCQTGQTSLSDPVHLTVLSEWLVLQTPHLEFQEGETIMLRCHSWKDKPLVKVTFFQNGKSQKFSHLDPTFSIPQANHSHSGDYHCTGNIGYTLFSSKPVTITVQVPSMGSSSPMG
Experimental: as §1

[4] = molecular target: T4, human FcγRIIIa F allotype extracellular domain with C-terminal His-tag (human, UniProt P08637 17-208); test: as above
T4 construct: extracellular domain; also called hFcγR IIIa F
T4 sequence (P08637 17-208): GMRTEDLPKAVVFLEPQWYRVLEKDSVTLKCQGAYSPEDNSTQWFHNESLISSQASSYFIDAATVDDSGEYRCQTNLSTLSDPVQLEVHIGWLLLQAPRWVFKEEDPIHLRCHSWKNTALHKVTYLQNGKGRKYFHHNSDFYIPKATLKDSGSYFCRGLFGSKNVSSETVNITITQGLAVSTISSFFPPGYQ
Experimental: as §1

[5] = molecular target: T5, human FcγRIIIa V allotype extracellular domain with C-terminal His-tag (human, UniProt P08637 17-208); test: as above
T5 construct: extracellular domain; also called hFcγR IIIa V
T5 sequence (P08637 17-208 F176V): as the sequence (P08637 17-208) above, with F160V counted along it
Experimental: as §1

[6] = molecular target: T6, human FcγRIIb extracellular domain with C-terminal His-tag (human, UniProt P31994 43-217); test: SPR; FcγRIIb at 1000 nM, bound amount per unit captured Ab
T6 construct: extracellular domain; also called hFcγR IIb
T6 sequence (looked up): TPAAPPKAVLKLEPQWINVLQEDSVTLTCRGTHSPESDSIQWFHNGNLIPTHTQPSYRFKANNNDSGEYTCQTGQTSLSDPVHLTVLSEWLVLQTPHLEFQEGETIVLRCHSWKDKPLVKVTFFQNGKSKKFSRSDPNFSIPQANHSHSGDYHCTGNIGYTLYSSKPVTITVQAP
Experimental: as §1

human FcRn [7] = molecular target: T7, human FcRn (human, UniProt P55899 24-290; P61769 21-119); test: SPR; KD of 04H1637-G1m/04L1610-lam1 divided by KD of variant;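 note: biacore T200 SPR at 25 °C, antibodies captured on anti-Fab-lambda SA chip with receptor as analyte, running buffer pH 7.4 for FcγRs and pH 6.0 for FcRn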
T7 construct: Prepared by the method of WO 2010/107110; also called hFcRn

[8] = molecular target: T1, human FcγRIa extracellular domain with …; test: as above
[9] = molecular target: T2, human FcγRIIa R allotype extracellular …; test: as above
[10] = molecular target: T3, human FcγRIIa H allotype extracellular …; test: as above
[11] = molecular target: T4, human FcγRIIIa F allotype extracellular …; test: as above
[12] = molecular target: T5, human FcγRIIIa V allotype extracellular …; test: as above
[13] = molecular target: T6, human FcγRIIb extracellular domain with …; test: SPR; binding amount divided by that of 04H1637-G1m/04L1610-lam1
human FcRn [14] = molecular target: T7, human FcRn; test: SPR Biacore T200, Ab captured via Fab-lambda, pH 6.0, 25C, steady state
Experimental: The interaction between the generated antibodies and human FcRn was analyzed by the following method using Biacore T200. 50 mM Na-Phosphate, 150 mM NaCl, 0.05% Tween20 (pH 6.0) was used as the running buffer, and the assay was performed at 25° C. For the sensor chip, Series S SA (GE Healthcare) chips onto which CaptureSelect Human Fab-lambda Kinetics Biotin Conjugate (Thermo Fisher Scientific) was immobilized were used. The antibodies of interest were captured onto these chips and FcRn diluted in the running buffer was allowed to interact with them. Chips were regenerated with 10 mM Glycine-HCl (pH 1.5) and 25 mM NaOH, and assay was performed by repeatedly capturing antibodies. The dissociation constant for FcRn of each antibody was calculated using the steady state model, using Biacore T200 Evaluation Software 2.0.

[15] = molecular target: hFcγRIIIaV on hFcγRIIIaV-expressing Jurkat cells (human, UniProt P08637 17-254); test: cell-based or functional assay
Chain of hFcγRIIIaV on hFcγRIIIaV-expressing Jurkat cells (P08637 17-254, form in doubt): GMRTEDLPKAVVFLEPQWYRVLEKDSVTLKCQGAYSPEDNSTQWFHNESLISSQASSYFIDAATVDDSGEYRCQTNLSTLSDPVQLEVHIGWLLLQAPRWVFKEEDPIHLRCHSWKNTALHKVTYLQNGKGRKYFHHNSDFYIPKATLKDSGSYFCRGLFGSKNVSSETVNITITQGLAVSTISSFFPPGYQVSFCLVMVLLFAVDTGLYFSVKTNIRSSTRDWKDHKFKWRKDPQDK

[16] = molecular target: T8, hFcγRIIaH on hFcγRIIaH-expressing Jurkat cells (human, UniProt P12318 34-317); test: cell-based or functional assay
T8 sequence (looked up): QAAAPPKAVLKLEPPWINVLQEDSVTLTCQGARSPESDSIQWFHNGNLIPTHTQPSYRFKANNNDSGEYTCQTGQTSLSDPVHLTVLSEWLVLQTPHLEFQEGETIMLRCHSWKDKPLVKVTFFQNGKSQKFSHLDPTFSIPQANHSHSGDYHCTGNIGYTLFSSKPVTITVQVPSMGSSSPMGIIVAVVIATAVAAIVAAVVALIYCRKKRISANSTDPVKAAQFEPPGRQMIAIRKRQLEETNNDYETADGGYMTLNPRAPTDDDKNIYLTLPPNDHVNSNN

[17] = molecular target: T9, human FcγRIa extracellular domain (human, UniProt P12314 16-292); test: SPR Biacore 8K+; KD of G1d divided by KD of this antibody;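 note: antibodies captured on an anti-Fab-kappa streptavidin chip, soluble FcγR ectodomains flowed over, KD by steady-state fit for FcγRIIb and Langmuir kinetic model for the other receptors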
T9 construct: extracellular domain; also called hFcγR Ia; hFcγRIa
T9 sequence (P12314 16-292): as the sequence (P12314 16-292) above

[18] = molecular target: T10, human FcγRIIa H extracellular domain (human, UniProt P12318 34-217); test: as above
T10 construct: extracellular domain; also called hFcγR IIa H
T10 sequence (looked up): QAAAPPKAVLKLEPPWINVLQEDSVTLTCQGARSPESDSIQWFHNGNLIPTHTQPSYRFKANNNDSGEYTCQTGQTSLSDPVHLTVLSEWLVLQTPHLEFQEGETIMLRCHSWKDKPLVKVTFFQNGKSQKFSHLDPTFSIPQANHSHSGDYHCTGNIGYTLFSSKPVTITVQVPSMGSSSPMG

[19] = molecular target: T11, human FcγRIIa R extracellular domain (human, UniProt P12318 34-217); test: as above
T11 construct: extracellular domain; also called hFcγR IIa R
T11 sequence (looked up): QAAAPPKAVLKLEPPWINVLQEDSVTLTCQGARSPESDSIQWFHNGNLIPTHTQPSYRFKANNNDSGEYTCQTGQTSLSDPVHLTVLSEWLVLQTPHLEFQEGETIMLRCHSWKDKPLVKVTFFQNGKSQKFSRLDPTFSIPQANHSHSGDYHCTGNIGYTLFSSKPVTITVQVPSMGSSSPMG

[20] = molecular target: T12, human FcγRIIb extracellular domain (human, UniProt P31994 43-217); test: as above
T12 construct: extracellular domain; also called hFcγR IIb
T12 sequence (looked up): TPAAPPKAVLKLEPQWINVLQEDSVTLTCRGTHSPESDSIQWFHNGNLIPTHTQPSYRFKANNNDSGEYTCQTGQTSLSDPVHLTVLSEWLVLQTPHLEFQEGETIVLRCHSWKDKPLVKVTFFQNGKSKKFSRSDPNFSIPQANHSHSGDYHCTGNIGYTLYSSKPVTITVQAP

[21] = molecular target: T13, human FcγRIIIa F extracellular domain (human, UniProt P08637 17-208); test: as above
T13 construct: extracellular domain; also called hFcγR IIIa F
T13 sequence (P08637 17-208): as the sequence (P08637 17-208) above

[22] = molecular target: T14, human FcγRIIIa V extracellular domain (human, UniProt P08637 17-208); test: as above
T14 construct: extracellular domain; also called hFcγR IIIa V
T14 sequence (P08637 17-208 F176V limits assumed): as the sequence (P08637 17-208) above, with F160V counted along it

[23] = molecular target: T10, human FcγRIIa H extracellular domain; test: SPR Biacore 8K+; KD for FcγRIIb divided by KD for this FcγR;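 note: antibodies captured on an anti-human Fab kappa SA chip with soluble human FcγR ectodomains flowed over, FcγRIIb KD from steady-state fit, other FcγR KD from Langmuir model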
[24] = molecular target: T11, human FcγRIIa R extracellular domain; test: as above
[25] = molecular target: T13, human FcγRIIIa F extracellular domain; test: as above
[26] = molecular target: T14, human FcγRIIIa V extracellular domain; test: as above
[27] = molecular target: T9, human FcγRIa extracellular domain; test: SPR Biacore 8K+, antibody captured, FcγR as analyte, 1:1 Langmuir model;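 note: antibodies captured on a streptavidin chip through a biotinylated anti-human Fab kappa reagent, with FcγR extracellular domains injected in pH 7.4 phosphate buffer at 25 °C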
Experimental: (§2) The interaction between the produced antibodies and human FcγRs was analyzed using Biacore 8K+ by the method below. For the running buffer, 50 mM Na-Phosphate, 150 mM NaCl, and 0.05% Tween20 (pH 7.4) was used, and measurement was performed at 25° C. The sensor chip used was a Series S SA chip (GE Healthcare) onto which CaptureSelect Human Fab-kappa Kinetics Biotin Conjugate (Thermo Fisher Scientific) was immobilized. An antibody of interest was captured onto this chip, and each FcγR diluted with the running buffer was allowed to interact with it. The chip was regenerated using 10 mM Glycine-HCl (pH 1.5), and repeatedly used to capture antibodies and perform measurement. The dissociation constants KD (mol/L) of each antibody for FcγRs were calculated using Biacore Insight Evaluation Software, with a steady state affinity model for the dissociation constant for FcγRIIb and a 1:1 Langmuir binding model for the dissociation constants for the other FcγRs (Table 48).

[28] = molecular target: T10, human FcγRIIa H extracellular domain; test: as above
Experimental: as §2

[29] = molecular target: T11, human FcγRIIa R extracellular domain; test: as above
Experimental: as §2

[30] = molecular target: T13, human FcγRIIIa F extracellular domain; test: as above
Experimental: as §2

[31] = molecular target: T14, human FcγRIIIa V extracellular domain; test: as above
Experimental: as §2

[32] = molecular target: T12, human FcγRIIb extracellular domain; test: SPR Biacore 8K+, antibody captured, FcγR as analyte, steady state affinity model
Experimental: as §2

Kd [1]: 0.049 nM
Kd [2]: 2000 nM
Kd [3]: 1500 nM
Kd [4]: 1400 nM
Kd [5]: 240 nM
Binding amount [6]: 0.008
Relative value to KD between G1m and hFcRn (human FcRn [7]): 1
Relative value to KD between G1m and hFcγRs [8]: 1
Relative value to KD between G1m and hFcγRs [9]: 1
Relative value to KD between G1m and hFcγRs [10]: 1
Relative value to KD between G1m and hFcγRs [11]: 1
Relative value to KD between G1m and hFcγRs [12]: 1
Relative binding amount [13]: 1
Kd (human FcRn [14]): 1300 nM
B1: 04H1637-G1m/04L1610-lam1 (antibody, human IgG1, lambda)
heavy: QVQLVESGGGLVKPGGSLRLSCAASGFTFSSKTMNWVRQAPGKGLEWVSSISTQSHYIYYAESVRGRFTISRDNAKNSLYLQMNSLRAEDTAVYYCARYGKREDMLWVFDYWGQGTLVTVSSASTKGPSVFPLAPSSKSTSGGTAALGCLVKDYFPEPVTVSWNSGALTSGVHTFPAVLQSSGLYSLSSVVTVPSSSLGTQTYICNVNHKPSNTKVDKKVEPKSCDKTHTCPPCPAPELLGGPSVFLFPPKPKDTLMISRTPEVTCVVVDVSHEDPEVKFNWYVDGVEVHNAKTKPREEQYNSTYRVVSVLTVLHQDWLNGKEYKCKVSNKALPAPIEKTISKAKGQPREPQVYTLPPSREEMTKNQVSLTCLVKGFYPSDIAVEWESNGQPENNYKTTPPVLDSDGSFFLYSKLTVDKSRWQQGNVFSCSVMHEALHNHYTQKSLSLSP
light: QSALTQPPSASGSPGQSVTISCEGPSTGVGDYNWVHWYQQHPGKAPKLMIYFTSKKPSGVPDRFSGSKSGNTASLTVSGLQAEDEADYYCQTYAAPLGPMFGGGTKLTVLGQPKAAPSVTLFPPSSEELQANKATLVCLISDFYPGAVTVAWKADSSPVKAGVETTTPSKQSNNKYAASSYLSLTPEQWKSHRSYSCQVTHEGSTVEKTVAPTECS

EC50 value (hFcγRIIIaV ADCC Reporter Bioassay, Hepa1-6/hEREG target cells) [15]: 0.000304 µg/mL
EC50 value (hFcγRIIaH ADCP Reporter Bioassay, Hepa1-6/hEREG target cells) [16]: 0.085 µg/mL
Relative value to KD between G1d and hFcgRs [17]: 3.4
Relative value to KD between G1d and hFcgRs [18]: 3.1
Relative value to KD between G1d and hFcgRs [19]: 1
Relative value to KD between G1d and hFcgRs [20]: 0.5
Relative value to KD between G1d and hFcgRs [21]: 578
Relative value to KD between G1d and hFcgRs [22]: 158
A/I ratio (KD for FcγRIIb divided by KD for each FcγR) [23]: 60.3
A/I ratio (KD for FcγRIIb divided by KD for each FcγR) [24]: 12.8
A/I ratio (KD for FcγRIIb divided by KD for each FcγR) [25]: 4310
A/I ratio (KD for FcγRIIb divided by KD for each FcγR) [26]: 9720
Kd [27]: 0.0261 nM
Kd [28]: 366 nM
Kd [29]: 1720 nM
Kd [30]: 5.12 nM
Kd [31]: 2.27 nM
Kd [32]: 22100 nM
B2: H240-Kn498/L73-k0//H240-Hl518/L73-k0 (antibody, human IgG1, kappa)
heavy 1: QDQLVQSGAEVKKPGASVKVSCKASGFNIKDTYIQWVRQAPGQGLEWMGRIDPLRKQTKYREKFEGRVTITADTSTNTAYMELSSLRSEDTAVYYCVRSGREFDYWGQGTLVTVSSASTKGPSVFPLAPSSKSTSGGTAALGCLVKDYFPEPVTVSWNSGALTSGVHTFPAVLQSSGLYSLSSVVTVPSSSLGTQTYICNVNHKPSNTKVDKKVEPKSCDKTHTCPPCPAPEFQWGPMVFLFPPKPKDVLMISRTPEVTCVVVDVSDEEPEVKFNWYVDGVEVHNAKTKPREEQYNATYRVVSVLPVLHQDWLNGKEYKCKVSNKALPMPIEKTISKAKGQPREPQVCTLPPSRDELTKNQVSLWCLVKGFYPSDIAVEWESNGQPENNYKTTPPVLDSDGSFFLYSKLTVDKSRWQQGNVFSCSVMHEALHNHYTQKSLSLSP
heavy 2: QDQLVQSGAEVKKPGASVKVSCKASGFNIKDTYIQWVRQAPGQGLEWMGRIDPLRKQTKYREKFEGRVTITADTSTNTAYMELSSLRSEDTAVYYCVRSGREFDYWGQGTLVTVSSASTKGPSVFPLAPSSKSTSGGTAALGCLVKDYFPEPVTVSWNSGALTSGVHTFPAVLQSSGLYSLSSVVTVPSSSLGTQTYICNVNHKPSNTKVDKKVEPKSCDKTHTCPPCPAPELLGGPSVFLFPPKPKDVLMISRTPEVTCVVVDVSHEEPEVKFNWYVDGVEVHNAKTKPREEQYNATYRVVSVLPVLHQDWLNGKEYKCKVSNDALPMPIEETISKAKGQPREPQVYTLPPSRCELTKNQVSLSCAVKGFYPSDIAVEWESNGQPENNYKTTPPVLDSDGSFFLVSKLTVDKSRWQQGNVFSCSVMHEALHNHYTQKSLSLSP
light: DIQMTQSPSSLSASVGDRVTITCRASQDIHKYIAWYQQKPGQAPRLLIQYTSTLQPGVPSRFSGSGSGTDYTFTISSLQPEDIATYYCLQYEQLRTFGGGTKVEIKRTVAAPSVFIFPPSDEQLKSGTASVVCLLNNFYPREAKVQWKVDNALQSGNSQESVTEQDSKDSTYSLSSTLTLSKADYEKHKVYACEVTHQGLSSPVTKSFNRGEC
notes: also called EGL-ART12; ART12
